Test results: the supplement of paper PMC10567573

B1: ZBED3 (parent)
chain: GPGFHAGTSALWRHLRSAHRRELE
B2: TRAF3IP2 (parent)
chain: KEHVPTWLQNTHVYSWPKNKKNIL

Variants of: B1
Test: protein stability index of a GFP-peptide fusion (GPS, HEK-293T) (PSI 1-6); higher = more stable
Details: c terminus: a fixed tail appended
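Further: lentivirally expressed fusions sorted by FACS into six bins by GFP to DsRed ratio, PSI derived from sequencing read proportions per bin multiplied by bin number.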

| Variant | protein stability index |
| --- | --- |
| R13K | 2.08 |
| F4C | 3.19 |
| H5E | 3.63 |

Variants of: B2
Test: as above
Details: c terminus: a fixed tail appended

| Variant | protein stability index |
| --- | --- |
| E2A | 1.94 |
| E2V | 2.15 |
| E2I | 1.58 |
| E2H | 2.08 |
| E2Q | 2.15 |
| E2M | 2.5 |
| E2N | 2.14 |
| E2F | 1.7 |
| E2C | 1.54 |
| E2Y | 2.07 |
| E2P | 2.25 |
| E2S | 2.53 |
| E2D | 2.47 |
| E2K | 2.13 |
| E2L | 1.67 |
| E2T | 2.33 |
| E2G | 1.93 |
| E2W | 1.57 |
| E2R | 3.4 |
| W16F | 2.7 |
| W16I | 3.05 |
| W16C | 2.88 |
| W16A | 3.35 |
| W16T | 3.68 |

| Variant | protein stability index |
| --- | --- |
| W16R | 3.9 |
| W16H | 3.39 |
| W16S | 3.08 |
| W16K | 2.81 |
| W16P | 3.82 |
| W16V | 2.88 |
| W16M | 2.75 |
| W16Y | 3 |
| W16Q | 3.36 |
| W16L | 3.02 |
| W16E | 3.77 |
| W16G | 3.55 |
| W16N | 3.39 |
| W16D | 3.53 |
| V13Q | 2.31 |
| V13C | 2.49 |
| V13A | 2.5 |
| V13P | 3.07 |
| V13L | 2.44 |
| V13W | 2.46 |
| V13T | 2.66 |
| V13H | 3.78 |
| V13N | 2.11 |
| V13D | 3.88 |

| Variant | protein stability index |
| --- | --- |
| V13I | 2.51 |
| V13M | 2.88 |
| V13R | 3 |
| V13F | 2.65 |
| V13Y | 2.62 |
| V13S | 2.75 |
| V13E | 2.52 |
| V13K | 3.2 |
| T11F | 2.53 |
| T11W | 2.3 |
| T11P | 2.67 |
| T11Q | 3.04 |
| T11D | 2.52 |
| T11S | 2.88 |
| T11V | 2.52 |
| T11A | 2.67 |
| T11R | 2.54 |
| T11K | 2.57 |
| T11N | 3.08 |
| T11L | 2.44 |
| T11M | 2.91 |
| T11G | 2.64 |
| T11Y | 2.36 |
| T11C | 2.28 |

| Variant | protein stability index |
| --- | --- |
| T11E | 2.83 |
| T11I | 2.55 |
| T11H | 2.38 |
| T6N | 3.38 |
| T6H | 2.29 |
| T6L | 2.58 |
| T6F | 1.93 |
| T6A | 2.49 |
| T6Y | 2.32 |
| T6I | 2.21 |
| T6C | 1.81 |
| T6Q | 2.51 |
| T6M | 2.22 |
| T6V | 2.17 |
| T6G | 2.81 |
| T6E | 2.59 |
| T6R | 2.23 |
| T6S | 2.88 |
| T6K | 2.73 |
| T6P | 3.07 |
| T6D | 2.71 |
| T6W | 1.53 |
| S15C | 2.15 |
| S15K | 2.77 |

| Variant | protein stability index |
| --- | --- |
| S15A | 3.19 |
| S15R | 3.12 |
| S15I | 1.7 |
| S15Y | 2.27 |
| S15V | 2.43 |
| S15W | 1.68 |
| S15N | 2.21 |
| S15F | 1.97 |
| S15T | 2.54 |
| S15G | 2.99 |
| S15P | 2.7 |
| S15L | 2.22 |
| S15H | 2.27 |
| S15Q | 2.49 |
| S15E | 2.6 |
| S15D | 2.89 |
| S15M | 2.23 |
| H3V | 2.69 |
| H3M | 2.46 |
| H3F | 2.16 |
| H3S | 2.58 |
| H3E | 2.51 |
| H3L | 2.6 |
| H3G | 3.19 |

| Variant | protein stability index |
| --- | --- |
| H3N | 3.17 |
| H3I | 2.53 |
| H3T | 2.72 |
| H3D | 2.85 |
| H3R | 2.21 |
| H3Q | 2.62 |
| H3A | 2.54 |
| H3W | 2.02 |
| H3Y | 2.03 |
| H3K | 2.83 |
| H3C | 2.42 |
| H3P | 3.67 |
| K1E | 3.06 |
| K1I | 1.94 |
| K1T | 2.71 |
| K1Q | 2.67 |
| K1V | 2.78 |
| K1N | 3.12 |
| K1C | 2.26 |
| K1Y | 1.93 |
| K1W | 1.98 |
| K1F | 1.69 |
| K1A | 3.11 |
| K1G | 3.22 |

| Variant | protein stability index |
| --- | --- |
| K1S | 2.76 |
| K1L | 2.56 |
| K1D | 2.93 |
| K1P | 1.97 |
| K1M | 2.33 |
| K1H | 2.58 |
| K1R | 2.42 |
| P5Y | 1.94 |
| P5M | 2.27 |
| P5G | 2.38 |
| P5E | 2.58 |
| P5A | 2.66 |
| P5L | 1.73 |
| P5D | 3.08 |
| P5H | 2.06 |
| P5T | 2.14 |
| P5Q | 1.45 |
| P5I | 1 |
| P5C | 1.96 |
| P5R | 1.95 |
| P5K | 1.9 |
| P5N | 2.26 |
| P5S | 2.47 |
| P5W | 2.76 |

| Variant | protein stability index |
| --- | --- |
| P5V | 2.24 |
| V4G | 2.81 |
| V4N | 3.44 |
| V4P | 2.85 |
| V4H | 2.25 |
| V4T | 3.87 |
| V4S | 2.77 |
| V4L | 3.21 |
| V4F | 2.07 |
| V4K | 2.43 |
| V4R | 2.69 |
| V4M | 2.35 |
| V4A | 2.39 |
| V4E | 3.23 |
| V4Q | 3.54 |
| V4C | 1.87 |
| V4Y | 2.27 |
| V4W | 1.93 |
| V4D | 3.29 |
| V4I | 1.74 |
| L8A | 3.33 |
| L8R | 2.98 |
| L8C | 3.02 |
| L8S | 3.01 |

| Variant | protein stability index |
| --- | --- |
| L8H | 2.76 |
| L8V | 2.04 |
| L8N | 3.2 |
| L8M | 3.34 |
| L8P | 3.18 |
| L8Y | 2.73 |
| L8I | 2.54 |
| L8E | 3.88 |
| L8G | 3.21 |
| L8W | 2.63 |
| L8K | 2.98 |
| L8D | 3.17 |
| L8F | 2.2 |
| L8T | 3.45 |
| L8Q | 3.08 |
| H12W | 1.82 |
| H12A | 2.86 |
| H12R | 3.02 |
| H12F | 2.13 |
| H12K | 2.51 |
| H12M | 2.42 |
| H12C | 2.46 |
| H12Q | 2.55 |
| H12S | 3.17 |

| Variant | protein stability index |
| --- | --- |
| H12T | 2.82 |
| H12D | 2.75 |
| H12I | 2.17 |
| H12E | 3.38 |
| H12V | 2.05 |
| H12G | 2.8 |
| H12P | 2.94 |
| H12Y | 2.6 |
| H12N | 2.62 |
| H12L | 1.79 |
| K18A | 2.66 |
| K18P | 3.12 |
| K18L | 2.41 |
| K18H | 2.37 |
| K18I | 2.05 |
| K18F | 2.12 |
| K18N | 2.81 |
| K18C | 2.33 |
| K18M | 2.42 |
| K18Q | 3.64 |
| K18G | 2.53 |
| K18D | 2.17 |
| K18E | 2.88 |
| N10A | 2.34 |

| Variant | protein stability index |
| --- | --- |
| N10Q | 2.32 |
| N10S | 2.66 |
| N10W | 1.64 |
| N10G | 2.07 |
| N10I | 1.79 |
| N10L | 2.03 |
| N10V | 2.85 |
| N10F | 2.09 |
| N10R | 2.09 |
| N10P | 2.64 |
| N10D | 3.02 |
| N10M | 2.25 |
| N10E | 2.66 |
| N10T | 2.85 |
| N10H | 2.48 |
| N10Y | 2.6 |
| N10K | 2.04 |
| N10C | 2.07 |
| Q9L | 2.29 |
| Q9E | 2.68 |
| Q9T | 2.8 |
| Q9K | 1.87 |
| Q9C | 2.25 |
| Q9R | 1.97 |

| Variant | protein stability index |
| --- | --- |
| Q9G | 2.66 |
| Q9A | 2.18 |
| Q9H | 2.54 |
| Q9V | 2.65 |
| Q9N | 3.18 |
| Q9P | 2.81 |
| Q9I | 2.55 |
| Q9Y | 2.39 |
| Q9S | 2.62 |
| Q9F | 2.38 |
| Q9D | 2.53 |
| Q9M | 2.53 |
| Y14F | 2.05 |
| Y14P | 2.98 |
| Y14W | 1.98 |
| Y14I | 3.71 |
| Y14H | 3.46 |
| Y14C | 2.63 |
| Y14S | 3.4 |
| Y14Q | 3.06 |
| Y14V | 2.69 |
| Y14N | 3.24 |
| Y14A | 3.14 |
| Y14T | 3 |

| Variant | protein stability index |
| --- | --- |
| Y14M | 2.76 |
| Y14L | 2.29 |
| Y14R | 2.73 |
| Y14D | 3 |
| Y14G | 3.05 |
| Y14K | 2.49 |
| Y14E | 3.14 |
| P17H | 2.21 |
| P17V | 1.98 |
| P17F | 2.18 |
| P17Q | 2.95 |
| P17T | 2.29 |
| P17G | 2.17 |
| P17W | 2.1 |
| P17C | 2.36 |
| P17Y | 2.03 |
| P17I | 2.1 |
| P17A | 2.22 |
| P17K | 2.31 |
| P17E | 2.23 |
| P17D | 2.71 |
| P17S | 2.81 |
| P17N | 1.95 |
| P17L | 1.85 |

| Variant | protein stability index |
| --- | --- |
| W7N | 3.63 |
| W7A | 3.39 |
| W7V | 3.82 |
| W7S | 3.31 |
| W7C | 3.75 |
| W7R | 2.85 |
| W7F | 2.82 |
| W7L | 3.2 |
| W7Y | 2.88 |
| W7G | 3.99 |
| W7K | 3.34 |
| W7H | 3.21 |
| W7T | 3.84 |
| W7M | 3.61 |
| W7D | 3.07 |
| W7Q | 3.74 |
| W7I | 2.61 |
| W7E | 3.97 |
| W7P | 3.21 |
